Values of other authors in patent US6878743B2, “Small molecule inhibitors of caspases” (Sunesis Pharmaceuticals, Inc., priority 2001, dated 2005).

Key:
caspase-1 = molecular target: T1, caspase-1 (Homo sapiens, UniProt P29466); conditions: Garcia-Calvo et al. 1998
T1 sequence (P29466 120-297 limits assumed): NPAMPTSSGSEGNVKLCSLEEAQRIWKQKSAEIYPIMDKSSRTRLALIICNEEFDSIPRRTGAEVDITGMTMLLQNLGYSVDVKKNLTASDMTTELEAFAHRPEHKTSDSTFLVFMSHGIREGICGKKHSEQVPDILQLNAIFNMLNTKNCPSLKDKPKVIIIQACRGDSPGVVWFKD
T1 sequence (P29466 317-404 limits assumed): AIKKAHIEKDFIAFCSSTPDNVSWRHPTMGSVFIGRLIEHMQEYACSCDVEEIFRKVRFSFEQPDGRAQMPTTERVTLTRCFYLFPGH

caspase-3 = molecular target: T2, caspase-3 (Homo sapiens, UniProt P42574); conditions: Garcia-Calvo et al. 1998
T2 sequence (P42574 29-175 limits assumed): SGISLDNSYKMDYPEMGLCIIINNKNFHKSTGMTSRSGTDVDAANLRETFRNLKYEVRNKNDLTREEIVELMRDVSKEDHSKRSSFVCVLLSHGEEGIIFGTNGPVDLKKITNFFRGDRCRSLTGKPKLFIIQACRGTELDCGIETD
T2 sequence (P42574 176-277 limits assumed): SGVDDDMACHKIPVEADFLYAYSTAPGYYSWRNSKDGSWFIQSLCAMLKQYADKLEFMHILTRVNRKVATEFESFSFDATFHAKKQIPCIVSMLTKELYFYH

| Substance | Ki (caspase-1) | Ki (caspase-3) |
| --- | --- | --- |
| Ac-Asp-Glu-Val-Asp-CHO | 18 nM |  |
| Ac-Tyr-Val-Ala-Asp-CHO | 0.056 nM | 1960 nM |
